We go through 22 sequences from the DeepSol protein solubility set.

The data set is described as follows: soluble on expression in E. coli; label from the status in PepcDB or PDB records.
“MGSDKIHHHHHHMRYLRADERCLICSLRQAENLLKKTITSPEKRWVIFREVFRIMSEMKWGMKPLEVNGEVHRFIMEYIKEEDPFKEEKRRSNDMAIKLVEMFRPEILNSPDPVYSAAKLAVSGNLIDLGIPGWSVDEIFEKLHEVYERPFDREDFEKFRNVLMNASTLFYVADNAGEIVFDKFFIEVLKMENPSLEVVVAVRGKPIINDATIEDAKYIGLEEIATVISSGVDEPGVMLDKASEEFRKAFFEFDVVISKGQGNFEGLYEEEKKNLFFLLTAKCDFVAEVLNVPLGGKVFISSSSL”: the “soluble on expression in E. coli” value is given as “not soluble”.

As to “YEVKVKLADIQADPNSPLYSAKSFDELGLAPELLKGIYAMKFQKPSKIQERALPLLLHNPPRNMIAQSQSGTGKTAAFSLTMLTRVNPEDASPQAICLAPSRELARQTLEVVQEMGKFTKITSQLIVPDSFEKNKQINAQVIVGTPGTVLDLMRRKLMQLQKIKIFVLDEADNMLDQQGLGDQCIRVKRFLPKDTQLVLFSATFADAVRQYAKKIVPNANTLELQT”, the “soluble on expression in E. coli” value is reported as “soluble”.

Consider “MSLMKRQFEDVTRIVIKIGTSSLVLPTGKINLEKIDQLAFVISSLMNKGKEVILVSSGAMGFGLDILKMEKRPTNLAKQQAVSSVGQVAMMSLYSQIFAYYQTNVSQILLTRDVVVFPESLANVTNAFESLISLGIVPIVNENDAVSVDEMDHATKFGDNDRLSAVVAGITKADLLIMLSDIDGLFDKNPTIYEDAQLRSHVANITQEIIASAGGAGSKFGTGGMLSKVQSAQMVFENKGQMVLMNGANPRDILRVLEGQPLGTWFKQIEEVRHDEGHHHHHH”, for which the “soluble on expression in E. coli” value was “soluble”.

Consider “MARPNFRYTHYDLKELRAGTTLEISLSSVNNVRLMTGANFQRFTELLDFKYLGGVAKKSPIRIAVPETMHWHLIIDAEGHSGLAESSVKMLPAQPQATLTRKAS”, for which the “soluble on expression in E. coli” value is “soluble”.

For “MAHHHHHHMTTMARVDETLARFKGKSPRDSYKQVCGELDVHMQREIYAALPEKPMAWHHIYTLDLEKALLGTKGCMAMLPLITVSTSMRKLSLRSCGLSDEFVIQLCAVLQSHPSLRSVDISDNELVTVYSAPHIISVMRNNSNMVLFDVYNTHVGSNVGDIIAKLGQRNLDNVLHYYEDRYFRMKNLFNYMDADGTGWVVLKSLVLNCPYPVLQEQFVERIATKQPRKRSDNTISINTFLQLVYMNYKTEAEIGTYSNKTIDEPYVFMVANWKQLLYAVERYNARAAAMGDGQGPHPPVQLPDNFHRWRLRDYIITPDDADALVEGAVQLIEHSSAMAEGEPELNESGERAEPDAEVDSDKETAENAAEAAPLVIPITILLRAAKSVLVLPPSVAKPSYSFYTDRDAAYVPEILRNGSRLFSVSRLSCLFSGGASTTGDSASSPDVLQDSADRPHTFSLPASVVKMVVDFFNKEHKKLPTKKQSMIPDSPQTRRDKAMEKAAIPVPTFLSAEFVSDLERVCPRFLADYYSRHALLIEDGTITLQEMVNVLDEMYAQCRIDRIISLADIKAMPDPMKDKSLVSFVTAHFADRDEDISFLEPFNDVVAY”, the “soluble on expression in E. coli” value is reported as “soluble”.

With “MSLMNAEQGVCAWAMNHPLEREYHDKEWGRAVHDDTKLFEFLTLEGAQAGLSWLTVLKKREGYRQAFLGYDLQRLAQCDESHVEQIIAEYDVVKHRGKIASVFSNARAALALQQEFGSLDAALWQFVGGQPKINRWVSMSDVPASTEESKAMSKFLKKRGFKFVGETICYAFMQACGLVNDHLVGCPNHSNADKLEGGSHHHHHH”, the “soluble on expression in E. coli” value is recorded as “soluble”.

Take “MSLEFFMAKADNPAFEQGQSPRMRLPDSVPLLIVGGGIMGLWAAVKAERLGIGTLLVEAGRLGGGASGGLLGALMPHMPDRWSDKKQFQFDALVALEAEIAGLEAETGLSGGYRRCGRIIPLPKPHLRGIAERHERDAAENWRSGERRFQWHVGERPSVAGWVDDAAGEAGFVFDTLAARVSPRALIALLSAFLRKARHVQVAEGCRVVSLDADAGRAALSSGEEISFGHVVVANGHESFPLIRDALGLEAGVALGQAVKGQAALLDASADPAMPVVFLNGLYIVPHEDGTVAIGSTSEDCFSEPFSTDEKLEKLLVDACTVVPSLAGAPVLERWAGLRPKAVGRDPMVGAMAGTAKLVALSGGFKVSFGLAHFLADAALETVCGHTPVIPSGFRLQEHVSIAVPDFRKFLEHHHHHH”: the “soluble on expression in E. coli” value is recorded as “not soluble”.

For the sequence “MDQPWNANIHYDALLDAMVPLGTQCVLDVGCGDGLLAARLARRIPYVTAVDIDAPVLRRAQTRFANAPIRWLHADIMTAELPNAGFDAVVSNAALHHIEDTRTALSRLGGLVTPGGTLAVVTFVTPSLRNGLWHLTSWVACGMANRVKGKWEHSAPIKWPPPQTLHELRSHVRALLPGACIRRLLYGRVLVTWRAPVLEHHHHHH”, the “soluble on expression in E. coli” value is “not soluble”.

As to “GPFPPPGMSLPEYWGEEHVWWDGRAAFHGEVVRPACTLAMEDAWQIIDMGETPVRDLQNGFSGPERKFSLRLRNCEFNSQGGNLFSDSRIRVTFDGVRGETPDKFNLSGQAKGINLQIADVRGNIARAGKVMPAIPLTGNEEALDYTLRIVRNGKKLEAGNYFAVLGFRVDYE”, the “soluble on expression in E. coli” value was “soluble”.

Turning to “DKCKKVYENYPVSKCQLANQCNYDCKLDKHARSGECFYDEKRNLQCICDYCEY”, the “soluble on expression in E. coli” value is reported as “soluble”.

As for “SASSIICQEHCQISGQAKIDILLVGDVTVGYLADTVQKLFANIAEVTITISDTKEAAALLDDCIFNMVLLKVPSSLSAEELEAIKLIRFGKKKNTHSLFVFIIPENFKGCISGHGMDIALTEPLTMEKMSNVVKYWTTCPSNTVKTENATGPEELGLPLQRSYSEHLGYFPTDLFACSESLRNGNGLELNASLSEFEKNKKISLLHSSKEKLRRLYRKHSSFCFW”, the “soluble on expression in E. coli” value was “soluble”.

For the sequence “MGSDKIHHHHHHMAKYEQLAQELKTRIAQGVWQAGDKLPSLRQTVADSGLSLMTVLNAYQLLESQGVISAQAKSGYLVAPKPELIARQGEAFRYPERQKPIYLSDSVDINEFVFNVLQASKQADIVPFGSGFPDPSLFPQQALARSLVKVTRHMSPSFAADNLPPGNAGLRKAISQRYAKLGMSISPDEIIITSGAMEALNLSLATLTQAGDWVVIESPTFYGAMQAIERLKLKAIAVATDPQQGIDLEALAEVLKTYPVKACWLMSQHQNPLGCSLSDTKKQALYQLLNEHKVSLIEDDVYQELYVDSSAPRSVKAFDTEGRVLHCGSFSKSLIAGYRVGWVAAGCHAPQLQRLQVMSTLSTSAPMQLAIADFIQSAQYERHLKQLRKKLASRKLAMYQLLCAHLPESVGVNFAQGGYFLWLALPAHMDATQIYYQAIERGISIAPGNLFSNQVEFRHFMRLNASYECSSEIVSAVMVLAELIRNYSRRS”, the “soluble on expression in E. coli” value is listed as “not soluble”.

As to “MDFPRIIMARNPIYFESIQIGEKIEGLPRTVTETDIWTFAYLTADFFPLHTDVEFAKKTIFGKPIAQGMLVLSIALGMVDQVILSNYDVSSVIAFFGIKDVRFLRPVFIGDTIAASAEVVEKQDFDEKSGVVTYKLEVKNQRGELVLTALYSALIRKTPSK”, the “soluble on expression in E. coli” value is given as “soluble”.

Consider “MNVDLHCHSTASDGALSPTALVARAHEYGVRVLSLTDHDTLEGLEEARTAAHSLGMQLVNGVELSCTWGGATIHVLGYGFDTQAPALTEAIARLHEGRWLRAEEISRKLAIKGMPGALEGARAIQQALGDSGNAPARPHFADFMVRAGFVKDRAEAFRKWLGAGKLGDVKQHWPTLEDTVATLRASGAWVSLAHPSHYDFTRSKRRKLVGDFVQAGGHAIEVVNGMQPADQVGTLAILAREFGLLVSAGSDFHGPGNWGEIGTYRPVPEDLPPLWCRF”, for which the “soluble on expression in E. coli” value is recorded as “soluble”.

For “MPTASPIYDVVVVGAGISGLIATQLLDRAGLNIKCFEACSRVGGRAVSVQQSDLFLDLGATWFWLNEPLVQQLVNNLGLGTFPQAIEGDALFETLVDAPSRLRGNPIDAASGRFQAGASSLALGLAAQLKPGVLELGDPVHSLSEEDGEIVVKSSKQIVRAKHVIIAVPPALAAELIGFTLDLPADVRKAAHPQHIAVMNWAKEKYTLPTQAASAGGFGHELFQQPLGHGRIHWASTEVATEFGGHLEGAVRAGIQAALQTGFNLKSLEHHHHHH”, the “soluble on expression in E. coli” value is listed as “soluble”.

Take “MAAYSYRPGPGAGPGPAAGAALPDQSFLWNVFQRVDKDRSGVISDTELQQALSNGTWTPFNPVTVRSIISMFDRENKAGVNFSEFTGVWKYITDWQNVFRTYDRDNSGMIDKNELKQALSGFGYRLSDQFHDILIRKFDRQGRGQIAFDDFIQGCIVLQRLTDIFRRYDTDQDGWIQVSYEQYLSMVFSIV”: the “soluble on expression in E. coli” value is given as “soluble”.

In the case of “MMVTFGEPGVYSSYSNPLPSTDTWEDCLEYCLGLSTCVAVYNNNCQMFEIGQISTATSTSETKIAFKFLADNATCPIQEPTSLQGHYFTNTTYQPYTVSYSAPTWTFANSTQLECPTNYALFVRDLGPWCMKVIQHYACCNKTIAATMCNSYGAQLSGLDSTAEYDFMLAGSWPIFKNVTTNKIGSTQYYATGVWVDGARTLACMGNTTYPCNTTQAFSFTDPTLSSPPGGYLWLPGRPDGGDAPADGIVLNLYTTELYGMEDTPSSEPVSGVYCWMGYLCGAVPT”, the “soluble on expression in E. coli” value is listed as “not soluble”.

As for “MSLNATIVDIARRANVTNITVSRTFNQPGLVKQETREKIHAIAKELNYVPNAFAQGLKRSSSQIIGIVTSSMYNPFYSELIQTVSRIARTQCYQIMLFDTDGSEEAEMEAIQALFGYKACGILLSPVRDDKNYQPAYLDLAETYRVPLILIDRDIYNRQLSGVFLNNKEIGLLAGKYLSEQPERKMLIIGGPAESEITRVRIEGIINALENKKNDVHIINGDYDFISQEAAVRDYLSSPQNQPDYIIGLNGILTLGAIAICHELKIYNNIKFFSIDEPPKAADYGLHIAGVYHDTQMLGEIAAELLFNAIKKPHNDQAVRREFFTGSLLTHEGHHHHHH”, the “soluble on expression in E. coli” value is “soluble”.

For “MTAFVHTLSDGMELTVEIKRRAKKNLIIRPAGTHTIRISVPPCFSVSALNRWLYENEAVLRQTLAKTPPPQTAENRLPESILFHGRQLALTAHQDTQILLMPSEIRVPEGAPEKQLALLRDFLERQAHSYLIPRLERHARTTQLFPAPSSLTSAKTFWGVCRKTTGIRFNWRLVGAPEYVADYVCIHELCHLAHADHSRAFWALTRRFAPYTPEAKQWLKIHGRELFALGLEHHHHHH”, the “soluble on expression in E. coli” value was “not soluble”.

As to “MQLSKALSLRRVLNSGFHPFQVIPKPDVWMKRERLNRFTAWQYASERSTVKGAYRKEDKIFAYLNMQRQDERNLEKFHAEERVRTALEEHDMEYSKFKSILSQSHILLDNICLSQLAIYEPRSFRSLVAFAKELARQEGMNVIPDDAEFSYDVHVDNKSVLRKPLPRAVEYTRGASENHTNKPRKLREDEY”, the “soluble on expression in E. coli” value is “not soluble”.

Consider “MNSYVKWIFVVLLICSLTAFVEKDKPTGGLSEGDVAPDFKIESASNGQPAFKLGNLKGKYVLLSFWASYDAQSRMQNVSLSNVLRSSRNVEMVSVSFDEYQSIFKETVRKDQIVTPTCFVETEGEDSRLFKKYRLNRGFTNYLLDGNGVIIAKNISAADLSAYVSEIG”, for which the “soluble on expression in E. coli” value is “not soluble”.

As to “MRRSGPELWKTLTSVSKSGQKKGRRNTRQPVRPLNRFYRIGSSPMKIEFAGLNAPIRMRETENQNLMSIAEQTEDEIRDSMGGTKKILEERDTGKKKRNREKLHPMERGFSGTQLVGQKLGAPPPLDGVNFDDFETYCLEVKRTSNMTNVFGRVHTMSALVVTGNGRGLAGYAVGKAPIHRTTTAIINGMGMASRKLFHVELHEGRTIYQDFYAECRNTRVFAQRRPRGFGLTCHPRLIKICEAIGIKDIYVKVEGSTKNYLALTHAFVTGLLNQETHQQLAERKGLHVVEMSPSRHFLPQIVASPISTELKTEETLEALDRLNLDDFYGEGRYPLRKPKSLPFFSNLEGHLDARWRKHPFRNQESTMIRLIADNMVPRWTRDARAAWADQRNERMTTGVEPMPLGIGLSHVVPKKDD”, the “soluble on expression in E. coli” value is recorded as “not soluble”.
